From patent publication US20210246166A1 (Bayer, published 2021)
Bridge positions count the residues as written; N and C are the ends. Square brackets hold non-standard residues; d marks the D form. Primed or numbered codes have the meaning given here. Ends that are not written are not given here. PEG9(31 atoms) = 1-amino-3,6,9,12,15,18,21,24,27-nonaoxatriacontan-30-oic acid; Oic = O=C(O)[C@@H]1C[C@@H]2CCCC[C@@H]2N1; Pro‑D2″ = L-Proline (3,4-2H), deuterated; PEG6 = NCCOCCOCCOCCOCCOCCOCCC(=O)O; NMeI = CC[C@H](C)[C@H](NC)C(=O)O; tBuAla = CC(C)(C)C[C@H](N)C(=O)O; PEG5 = NCCOCCOCCOCCOCCOCCC(=O)O; Pen = CC(C)(S)[C@H](N)C(=O)O; NMeA = CN[C@@H](C)C(=O)O; Orn = NCCC[C@H](N)C(=O)O; Abu = CC[C@H](N)C(=O)O; Sar = CNCC(=O)O

T1: recombinant human MASP1 active protease (amino acids 297-699, C-terminal His Tag) (human, UniProt P48740 297-699)
T1 sequence: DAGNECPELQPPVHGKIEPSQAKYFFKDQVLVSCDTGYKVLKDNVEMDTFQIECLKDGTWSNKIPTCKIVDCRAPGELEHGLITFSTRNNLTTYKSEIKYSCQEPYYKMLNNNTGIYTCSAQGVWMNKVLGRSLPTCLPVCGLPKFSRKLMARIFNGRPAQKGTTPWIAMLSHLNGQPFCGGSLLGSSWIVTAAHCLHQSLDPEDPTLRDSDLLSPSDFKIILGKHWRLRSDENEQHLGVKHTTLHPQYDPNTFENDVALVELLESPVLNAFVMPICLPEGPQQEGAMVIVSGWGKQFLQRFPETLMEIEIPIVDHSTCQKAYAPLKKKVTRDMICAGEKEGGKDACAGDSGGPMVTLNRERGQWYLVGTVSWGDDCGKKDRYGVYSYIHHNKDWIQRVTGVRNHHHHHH


What was measured:
[1] = biological target: recombinant human MASP2 active protease (amino acids 297-686, C-terminal His Tag) (human, UniProt O00187 297-686); assay: cell-based or functional assay
[2] = biological target: T1, recombinant human MASP1 active protease …; assay: cell-based or functional assay

recombinant human MASP2 active protease (amino acids 297-686, C-terminal His Tag), sequence (O00187 other isoform, or with tags, fused parts or gaps limits assumed): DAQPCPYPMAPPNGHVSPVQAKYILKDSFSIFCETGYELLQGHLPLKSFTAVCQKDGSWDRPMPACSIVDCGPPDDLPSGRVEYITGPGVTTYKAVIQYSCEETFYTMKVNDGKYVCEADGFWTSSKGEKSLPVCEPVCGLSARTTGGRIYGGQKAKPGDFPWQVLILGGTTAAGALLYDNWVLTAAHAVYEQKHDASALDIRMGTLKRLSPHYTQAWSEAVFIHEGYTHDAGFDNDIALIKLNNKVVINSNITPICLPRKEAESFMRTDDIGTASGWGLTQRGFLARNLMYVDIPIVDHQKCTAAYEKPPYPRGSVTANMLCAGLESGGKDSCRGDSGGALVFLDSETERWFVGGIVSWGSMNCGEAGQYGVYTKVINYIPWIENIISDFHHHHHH

Binder	human MASP2 IC50 [1] [nM]	human MASP1 IC50 [2] [nM]
[Sar]ICSRS[tBuAla]PPI[Pen]IP[PEG5]-NH2 (disulfide 3-11; N-terminus assumed; SMILES CC[C@H](C)[C@H](NC(=O)CNC)C(=O)N[C@H]1CSSC(C)(C)[C@@H](C(=O)N[C@H](C(=O)N2CCC[C@H]2C(=O)NCCOCCOCCOCCOCCOCCC(N)=O)[C@@H](C)CC)NC(=O)[C@H]([C@@H](C)CC)NC(=O)[C@@H]2CCCN2C(=O)[C@@H]2CCCN2C(=O)[C@H](CC(C)(C)C)NC(=O)[C@H](CO)NC(=O)[C@H](CCCNC(=N)N)NC(=O)[C@H](CO)NC1=O) [((N-Me)G)-IC+SRS-((tBu)A)-PPI-(Pen)+IP-(PEG4(19 atoms))-NH2]	60	3.6
[NMeA]ICSRSLP[Oic]I[Pen]I-NH2 (disulfide 3-11; N-terminus assumed; SMILES CC[C@H](C)[C@H](NC(=O)[C@H]1NC(=O)[C@H]([C@@H](C)CC)NC(=O)[C@@H]2C[C@@H]3CCCC[C@@H]3N2C(=O)[C@@H]2CCCN2C(=O)[C@H](CC(C)C)NC(=O)[C@H](CO)NC(=O)[C@H](CCCNC(=N)N)NC(=O)[C@H](CO)NC(=O)[C@@H](NC(=O)[C@@H](NC(=O)[C@H](C)NC)[C@@H](C)CC)CSSC1(C)C)C(N)=O) [((N-Me)A)-IC+SRSLP-(Oic)-I-(Pen)+I-NH2]	195	3.75
[NMeA]ICSRSLP[Oic]I[Pen]IPQ-NH2 (disulfide 3-11; N-terminus assumed; SMILES CC[C@H](C)[C@H](NC(=O)[C@H](C)NC)C(=O)N[C@H]1CSSC(C)(C)[C@@H](C(=O)N[C@H](C(=O)N2CCC[C@H]2C(=O)N[C@@H](CCC(N)=O)C(N)=O)[C@@H](C)CC)NC(=O)[C@H]([C@@H](C)CC)NC(=O)[C@@H]2C[C@@H]3CCCC[C@@H]3N2C(=O)[C@@H]2CCCN2C(=O)[C@H](CC(C)C)NC(=O)[C@H](CO)NC(=O)[C@H](CCCNC(=N)N)NC(=O)[C@H](CO)NC1=O) [((N-Me)A)-IC+SRSLP-(Oic)-I-(Pen)+IPQ-NH2]	190	3.5
[Sar][NMeI]CSRS[tBuAla]PPI[Pen]IP-NH2 (disulfide 3-11; N-terminus assumed; SMILES CC[C@H](C)[C@@H]1NC(=O)[C@@H]2CCCN2C(=O)[C@@H]2CCCN2C(=O)[C@H](CC(C)(C)C)NC(=O)[C@H](CO)NC(=O)[C@H](CCCNC(=N)N)NC(=O)[C@H](CO)NC(=O)[C@@H](NC(=O)[C@H]([C@@H](C)CC)N(C)C(=O)CNC)CSSC(C)(C)[C@@H](C(=O)N[C@H](C(=O)N2CCC[C@H]2C(N)=O)[C@@H](C)CC)NC1=O) [((N-Me)G)-((N-Me)I)-C+SRS-((tBu)A)-PPI-(Pen)+IP-NH2]	590	3.7
[Sar]ICSRSLP[Oic]I[Pen]IP[PEG9(31 atoms)]-NH2 (disulfide 3-11) [((N-Me)G)-IC+SRSLP-(Oic)-I-(Pen)+IP-(PEG9(31 atoms))-NH2]	100	3.7
[Sar]ICSRSLP[Oic]I[Pen]IP[PEG6]-NH2 (disulfide 3-11; N-terminus assumed; SMILES CC[C@H](C)[C@H](NC(=O)CNC)C(=O)N[C@H]1CSSC(C)(C)[C@@H](C(=O)N[C@H](C(=O)N2CCC[C@H]2C(=O)NCCOCCOCCOCCOCCOCCOCCC(N)=O)[C@@H](C)CC)NC(=O)[C@H]([C@@H](C)CC)NC(=O)[C@@H]2C[C@@H]3CCCC[C@@H]3N2C(=O)[C@@H]2CCCN2C(=O)[C@H](CC(C)C)NC(=O)[C@H](CO)NC(=O)[C@H](CCCNC(=N)N)NC(=O)[C@H](CO)NC1=O) [((N-Me)G)-IC+SRSLP-(Oic)-I-(Pen)+IP-(PEG5(22 atoms))-NH2]	90	3.5
[Orn]ICSRS[tBuAla]PPI[Pen]IP-OH (disulfide 3-11; N-terminus assumed; SMILES CC[C@H](C)[C@H](NC(=O)[C@@H](N)CCCN)C(=O)N[C@H]1CSSC(C)(C)[C@@H](C(=O)N[C@H](C(=O)N2CCC[C@H]2C(=O)O)[C@@H](C)CC)NC(=O)[C@H]([C@@H](C)CC)NC(=O)[C@@H]2CCCN2C(=O)[C@@H]2CCCN2C(=O)[C@H](CC(C)(C)C)NC(=O)[C@H](CO)NC(=O)[C@H](CCCNC(=N)N)NC(=O)[C@H](CO)NC1=O) [(Orn)-IC+SRS-((tBu)A)-PPI-(Pen)+IP-OH]	130	3.6
AICSRS[tBuAla]P[Oic]I[Pen]IPD-OH (disulfide 3-11; N-terminus assumed; SMILES CC[C@H](C)[C@H](NC(=O)[C@H](C)N)C(=O)N[C@H]1CSSC(C)(C)[C@@H](C(=O)N[C@H](C(=O)N2CCC[C@H]2C(=O)N[C@@H](CC(=O)O)C(=O)O)[C@@H](C)CC)NC(=O)[C@H]([C@@H](C)CC)NC(=O)[C@@H]2C[C@@H]3CCCC[C@@H]3N2C(=O)[C@@H]2CCCN2C(=O)[C@H](CC(C)(C)C)NC(=O)[C@H](CO)NC(=O)[C@H](CCCNC(=N)N)NC(=O)[C@H](CO)NC1=O) [AIC+SRS-((tBu)A)-P-(Oic)-I-(Pen)+IPD-OH]	62	1.3
[2‑(Pyrrolidine)acetyl]ICSRS[tBuAla]PPI[Pen]IPD-NH2 (disulfide 3-11) [(2-(Pyrrolidine)acetyl)-IC+SRS-((tBu)A)-PPI-(Pen)+IPD-NH2]	87	1.3

Second part, the binder after the results:

human MASP2 IC50 [1] [nM]	human MASP1 IC50 [2] [nM]	Binder
68	3.7	A[Abu]CSRS[tBuAla]PPI[Pen]IPD-NH2 (disulfide 3-11; N-terminus assumed; SMILES CC[C@H](NC(=O)[C@H](C)N)C(=O)N[C@H]1CSSC(C)(C)[C@@H](C(=O)N[C@H](C(=O)N2CCC[C@H]2C(=O)N[C@@H](CC(=O)O)C(N)=O)[C@@H](C)CC)NC(=O)[C@H]([C@@H](C)CC)NC(=O)[C@@H]2CCCN2C(=O)[C@@H]2CCCN2C(=O)[C@H](CC(C)(C)C)NC(=O)[C@H](CO)NC(=O)[C@H](CCCNC(=N)N)NC(=O)[C@H](CO)NC1=O) [A-(Abu)-C+SRS-((tBu)A)-PPI-(Pen)+IPD-NH2]
56	3.7	TICSRS[tBuAla]PPI[Pen]IPD-OH (disulfide 3-11; N-terminus assumed; SMILES CC[C@H](C)[C@H](NC(=O)[C@@H](N)[C@@H](C)O)C(=O)N[C@H]1CSSC(C)(C)[C@@H](C(=O)N[C@H](C(=O)N2CCC[C@H]2C(=O)N[C@@H](CC(=O)O)C(=O)O)[C@@H](C)CC)NC(=O)[C@H]([C@@H](C)CC)NC(=O)[C@@H]2CCCN2C(=O)[C@@H]2CCCN2C(=O)[C@H](CC(C)(C)C)NC(=O)[C@H](CO)NC(=O)[C@H](CCCNC(=N)N)NC(=O)[C@H](CO)NC1=O) [TIC+SRS-((tBu)A)-PPI-(Pen)+IPD-OH]
37	1.2	AICSRS[tBuAla]PPI[Pen]IPD-OH (disulfide 3-11; N-terminus assumed; SMILES CC[C@H](C)[C@H](NC(=O)[C@H](C)N)C(=O)N[C@H]1CSSC(C)(C)[C@@H](C(=O)N[C@H](C(=O)N2CCC[C@H]2C(=O)N[C@@H](CC(=O)O)C(=O)O)[C@@H](C)CC)NC(=O)[C@H]([C@@H](C)CC)NC(=O)[C@@H]2CCCN2C(=O)[C@@H]2CCCN2C(=O)[C@H](CC(C)(C)C)NC(=O)[C@H](CO)NC(=O)[C@H](CCCNC(=N)N)NC(=O)[C@H](CO)NC1=O) [AIC+SRS-((tBu)A)-PPI-(Pen)+IPD-OH]
316	4.65	AICSRSLP[Oic]ICIPD-OH (disulfide 3-11; N-terminus assumed; SMILES CC[C@H](C)[C@H](NC(=O)[C@H](C)N)C(=O)N[C@H]1CSSC[C@@H](C(=O)N[C@H](C(=O)N2CCC[C@H]2C(=O)N[C@@H](CC(=O)O)C(=O)O)[C@@H](C)CC)NC(=O)[C@H]([C@@H](C)CC)NC(=O)[C@@H]2C[C@@H]3CCCC[C@@H]3N2C(=O)[C@@H]2CCCN2C(=O)[C@H](CC(C)C)NC(=O)[C@H](CO)NC(=O)[C@H](CCCNC(=N)N)NC(=O)[C@H](CO)NC1=O) [AIC+SRSLP-(Oic)-IC+IPD-OH]
140	3.5	AICSRSLP[Oic]I[Pen]IPE-OH (disulfide 3-11; N-terminus assumed; SMILES CC[C@H](C)[C@H](NC(=O)[C@H](C)N)C(=O)N[C@H]1CSSC(C)(C)[C@@H](C(=O)N[C@H](C(=O)N2CCC[C@H]2C(=O)N[C@@H](CCC(=O)O)C(=O)O)[C@@H](C)CC)NC(=O)[C@H]([C@@H](C)CC)NC(=O)[C@@H]2C[C@@H]3CCCC[C@@H]3N2C(=O)[C@@H]2CCCN2C(=O)[C@H](CC(C)C)NC(=O)[C@H](CO)NC(=O)[C@H](CCCNC(=N)N)NC(=O)[C@H](CO)NC1=O) [AIC+SRSLP-(Oic)-I-(Pen)+IPE-OH]
126	2.13	AICSRSL[Pro‑D2″][Oic]I[Pen]IPD-OH (disulfide 3-11) [AIC+SRSL-(Pro-D2)-(Oic)-I-(Pen)+IPD-OH]
74.5	3.6	TICSRS[tBuAla]PPI[Pen]IPD-NH2 (disulfide 3-11; N-terminus assumed; SMILES CC[C@H](C)[C@H](NC(=O)[C@@H](N)[C@@H](C)O)C(=O)N[C@H]1CSSC(C)(C)[C@@H](C(=O)N[C@H](C(=O)N2CCC[C@H]2C(=O)N[C@@H](CC(=O)O)C(N)=O)[C@@H](C)CC)NC(=O)[C@H]([C@@H](C)CC)NC(=O)[C@@H]2CCCN2C(=O)[C@@H]2CCCN2C(=O)[C@H](CC(C)(C)C)NC(=O)[C@H](CO)NC(=O)[C@H](CCCNC(=N)N)NC(=O)[C@H](CO)NC1=O) [TIC+SRS-((tBu)A)-PPI-(Pen)+IPD-NH2]
